Data as given in patent publication US8440430, “Modified dicer polypeptide and methods of use thereof” (The Regents of the University of California).

T1: hWalker human Dicer (K70A) (Homo sapiens, UniProt Q9UPY3 SEQ:1-1922)
T1 chain: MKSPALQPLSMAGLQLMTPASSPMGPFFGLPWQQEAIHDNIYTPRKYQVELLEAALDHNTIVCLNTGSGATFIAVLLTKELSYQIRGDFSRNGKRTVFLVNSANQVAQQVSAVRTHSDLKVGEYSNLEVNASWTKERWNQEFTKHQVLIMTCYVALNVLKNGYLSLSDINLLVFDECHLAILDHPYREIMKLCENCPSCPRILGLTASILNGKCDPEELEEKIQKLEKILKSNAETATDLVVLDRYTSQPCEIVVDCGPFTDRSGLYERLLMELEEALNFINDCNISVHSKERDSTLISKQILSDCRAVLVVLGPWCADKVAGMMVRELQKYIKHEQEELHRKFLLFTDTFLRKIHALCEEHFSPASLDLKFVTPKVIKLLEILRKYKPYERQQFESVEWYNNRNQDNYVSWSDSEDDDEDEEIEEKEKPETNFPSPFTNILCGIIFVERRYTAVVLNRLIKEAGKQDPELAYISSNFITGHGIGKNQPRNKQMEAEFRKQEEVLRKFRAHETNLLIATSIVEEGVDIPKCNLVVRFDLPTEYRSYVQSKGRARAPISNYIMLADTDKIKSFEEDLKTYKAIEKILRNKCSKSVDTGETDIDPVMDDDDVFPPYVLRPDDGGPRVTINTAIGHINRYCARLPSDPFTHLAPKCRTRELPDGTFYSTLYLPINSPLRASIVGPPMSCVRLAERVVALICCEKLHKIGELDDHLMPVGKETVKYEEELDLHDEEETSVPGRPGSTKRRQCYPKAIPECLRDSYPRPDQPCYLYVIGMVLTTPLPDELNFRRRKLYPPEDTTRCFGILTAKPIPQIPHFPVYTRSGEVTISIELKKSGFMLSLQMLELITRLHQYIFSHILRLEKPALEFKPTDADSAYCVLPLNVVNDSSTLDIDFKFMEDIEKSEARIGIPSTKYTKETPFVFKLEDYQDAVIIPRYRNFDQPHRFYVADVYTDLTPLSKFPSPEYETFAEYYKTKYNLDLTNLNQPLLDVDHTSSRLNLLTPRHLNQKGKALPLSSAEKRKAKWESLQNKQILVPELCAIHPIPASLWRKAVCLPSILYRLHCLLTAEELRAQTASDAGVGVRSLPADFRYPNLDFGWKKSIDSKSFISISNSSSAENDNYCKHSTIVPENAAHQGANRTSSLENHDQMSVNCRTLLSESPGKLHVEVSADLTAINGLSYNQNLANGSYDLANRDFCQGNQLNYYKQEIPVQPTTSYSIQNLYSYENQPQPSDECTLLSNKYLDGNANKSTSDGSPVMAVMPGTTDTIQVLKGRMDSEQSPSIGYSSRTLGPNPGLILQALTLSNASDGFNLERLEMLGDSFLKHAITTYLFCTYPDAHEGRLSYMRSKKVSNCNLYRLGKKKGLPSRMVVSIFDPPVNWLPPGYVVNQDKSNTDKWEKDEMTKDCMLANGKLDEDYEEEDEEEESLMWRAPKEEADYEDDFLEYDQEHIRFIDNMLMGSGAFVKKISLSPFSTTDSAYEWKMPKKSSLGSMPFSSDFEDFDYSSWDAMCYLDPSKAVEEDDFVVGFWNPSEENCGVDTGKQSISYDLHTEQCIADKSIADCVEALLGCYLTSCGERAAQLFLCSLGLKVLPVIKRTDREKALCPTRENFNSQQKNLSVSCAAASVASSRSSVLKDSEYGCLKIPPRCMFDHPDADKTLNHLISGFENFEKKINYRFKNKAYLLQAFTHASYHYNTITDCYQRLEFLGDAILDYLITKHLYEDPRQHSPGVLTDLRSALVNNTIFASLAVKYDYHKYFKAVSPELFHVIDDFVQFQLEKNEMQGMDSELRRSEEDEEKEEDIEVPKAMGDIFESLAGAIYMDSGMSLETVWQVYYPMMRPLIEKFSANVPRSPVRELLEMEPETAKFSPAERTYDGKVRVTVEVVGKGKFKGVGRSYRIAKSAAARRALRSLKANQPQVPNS

B1: pre-hlet-7 hairpin RNA (ssRNA)
RNA: UGAGGUAGUAGGUUGUAUAGUUUUAGGGUCACACCCACCACUGGGAGAUAACUAUACAAUCUACUGUCUUACC
B2: 37ab duplex RNA (dsRNA)
RNA 1: UGAGGUAGUAGGUUGUAUAGUUUGAAAGUUCACGAUU
RNA 2: UCGUGAACUUUCAAACUAUACAACCUACUACCUCAUU

Key:
[1] = biological target: wild-type human Dicer (flhDcr) (Homo sapiens, UniProt Q9UPY3 SEQ:1-1922); test: filter; 5 mM EDTA, no free Mg2+, 25 mM NaCl, pH 7.5, room temperature; conditions: tags: N-terminal His6 removed by site-specific protease, baculovirus/Sf9
Protocol: A serial dilution of proteins were incubated in a buffer containing 20 mM Tris-Cl (pH 7.5), 25 mM NaCl, 5 mM EDTA, 1 mM dithiothreitol (DTT), 1% glycerol and ~0.5-1 nM (1500 c.p.m.) of ^32P-labeled duplex RNA substrate (one strand was labeled) at room temperature for 60 min […] After this incubation, 25 µl of each reaction were used for dot-blotting, which was conducted in a dot-blot apparatus equipped with 3 membranes of Tuffryn, Protran and Nytran (from top to bottom). After dried, the bound (on Protran) or free (on Nytran) RNAs were detected and quantified with Phosphoimager (GE Healthcare). Percentage of bound RNAs was calculated by 100 multiplied by the ratio of radioactivity (volumes) detected on the Protran membrane over the total input volumes (radioactivity). The bound RNAs (%) (Y-axle) were plotted against protein concentrations (X-axle). K_d was determined by global fitting to the equation of kobsd = (kmax ×[Dicer])(K_{1/2} + [Dicer])^-1, here $kobsd$ is the observed rate constant at a particular protein concentration, $kmax$ is the maximal rate constant with saturating protein, and K_{1/2} (or K_d) is the protein concentration that provides half the maximal rate. Curve fitting was conducted with KleidaGraph (Synery Software).
RNA. […] These values are similar to those measured previously (Provost et al, 2002; Vermeulen et al, 2005).

[2] = biological target: T1, hWalker human Dicer (K70A); test: filter; within three-fold of full-length; 5 mM EDTA; exact Kd only in figure; conditions: tags: N-terminal His6 removed by site-specific protease, baculovirus/Sf9
Protocol: After dried, the bound (on Protran) or free (on Nytran) RNAs were detected and quantified with Phosphoimager (GE Healthcare). Percentage of bound RNAs was calculated by 100 multiplied by the ratio of radioactivity (volumes) detected on the Protran membrane over the total input volumes (radioactivity). The bound RNAs (%) (Y-axle) were plotted against protein concentrations (X-axle). K_d was determined by global fitting to the equation of kobsd = (kmax ×[Dicer])(K_{1/2} + [Dicer])^-1, here $kobsd$ is the observed rate constant at a particular protein concentration, $kmax$ is the maximal rate constant with saturating protein, and K_{1/2} (or K_d) is the protein concentration that provides half the maximal rate. Curve fitting was conducted with KleidaGraph (Synery Software).
RNA. […] These values are similar to those measured previously (Provost et al, 2002; Vermeulen et al, 2005). […] The protein lacking both the DExD/H-box domain and the dsRBD (2DD) bound ~3-4 fold more weakly to either substrate relative to full-length Dicer (FIG. 3A-C). It is possible that this severely truncated protein is generally destabilized, or that the DExD/H-box domain plays a small but measurable role in substrate binding.

[3] = label: 5'-32P on one strand, perfect duplex with 2-nt 3' overhangs on both ends

Binder	Kd ([1]; label: 5'-32P, hairpin) [nM]	Kd relative to full-length Dicer (fold) ([2]; label: 5'-32P, hairpin)	Kd [1, 3] [nM]	Kd relative to full-length Dicer (fold) [2, 3]
B1	30	≤ 3 fold of full-length Kd (30 nM)	–	–
B2	–	–	75	≤ 3 fold of full-length Kd (75 nM)
